Results on 125 sequences are retold here after the supplement of paper PMC9112550, “Optimization of the antimicrobial peptide Bac7 by deep mutational scanning” (BMC Biology, 2022).

The test system of this data set is Escherichia coli TOP10. Briefly: shrunken log2 fold change of peptide-encoding DNA abundance (4.5 h post-induction vs induction); higher = less antimicrobial activity (less host growth inhibition). To be noted: time post-induction: 4.5 h; library: site-saturation at positions 5, 18, 19, 20.
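Also: peptides expressed intracellularly from a pBAD plasmid library in pooled LB shake-flask culture, induced with 0.3% L-arabinose, DNA abundance read by NGS, three biological replicates, DESeq2 with apeglm shrinkage.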

Turning to RRIRDRPPRLPRPRPRPEEHPRP, the “shrunken log2 fold change” value was determined as 0.937.
To RRIRHRPPRLPRPRPRPHWKPRP belongs -0.337; to RRIRLRPPRLPRPRPRPARPPRP, 0.449.
In the case of RRIRIRPPRLPRPRPRPDTTPRP, the “shrunken log2 fold change” value is -0.243.
RRIRNRPPRLPRPRPRPSRYPRP: the “shrunken log2 fold change” value was -0.000156.
For RRIRQRPPRLPRPRPRPMSYPRP, the “shrunken log2 fold change” value was -0.01.
In the case of RRIRVRPPRLPRPRPRPFWTPRP, the “shrunken log2 fold change” value was -0.427.
With RRIRNRPPRLPRPRPRPILEPRP the figure was 0.109; with RRIRLRPPRLPRPRPRPSAHPRP, 0.0318; with RRIRHRPPRLPRPRPRPWMCPRP, -1.49.
With RRIRDRPPRLPRPRPRPDNPPRP the figure was -0.159; with RRIRIRPPRLPRPRPRPIIFPRP, -0.667; with RRIRLRPPRLPRPRPRPVLRPRP, -0.113.
With RRIRHRPPRLPRPRPRPRGNPRP the figure was 0.174.
RRIRTRPPRLPRPRPRPWSMPRP: the “shrunken log2 fold change” value was -0.36.
To RRIRPRPPRLPRPRPRPHDGPRP belongs -0.0292; to RRIRVRPPRLPRPRPRPRNVPRP, -0.192.
For the sequence RRIRQRPPRLPRPRPRPSQVPRP, the “shrunken log2 fold change” value is -0.23.
With RRIRQRPPRLPRPRPRPSQKPRP the figure was 0.0595; with RRIRDRPPRLPRPRPRPPDSPRP, 0.0832.
As for RRIRFRPPRLPRPRPRPIPFPRP, the “shrunken log2 fold change” value came out at 2.3.
With RRIRGRPPRLPRPRPRPITEPRP the figure was 0.000184; with RRIRTRPPRLPRPRPRPVSYPRP, -0.242; with RRIRNRPPRLPRPRPRPWVIPRP, -0.552.
With RRIRPRPPRLPRPRPRPWTQPRP the figure was -0.0236; with RRIRQRPPRLPRPRPRPEFIPRP, -0.163; with RRIRERPPRLPRPRPRPTKRPRP, -0.176.
RRIRYRPPRLPRPRPRPREDPRP: the “shrunken log2 fold change” value was -0.126.
With RRIRPRPPRLPRPRPRPIETPRP the figure was 0.0267.
As for RRIRYRPPRLPRPRPRPEFKPRP, the “shrunken log2 fold change” value is 0.0136.
Regarding RRIRIRPPRLPRPRPRPRWGPRP, the “shrunken log2 fold change” value is 0.181.
With RRIRPRPPRLPRPRPRPKDSPRP the figure was -0.157; with RRIRRRPPRLPRPRPRPTVCPRP, 0.227.
Take RRIRNRPPRLPRPRPRPEWWPRP: the “shrunken log2 fold change” value was 0.315.
For the sequence RRIRGRPPRLPRPRPRPNMNPRP, the “shrunken log2 fold change” value was 0.255.
Consider RRIRYRPPRLPRPRPRPDWMPRP, for which the “shrunken log2 fold change” value is 0.0748.
Regarding RRIRRRPPRLPRPRPRPLMPPRP, the “shrunken log2 fold change” value stood at 0.297.
For RRIRKRPPRLPRPRPRPPCYPRP, the “shrunken log2 fold change” value came to 0.202.
To RRIRFRPPRLPRPRPRPDHKPRP belongs -0.406.
For the sequence RRIRGRPPRLPRPRPRPMHMPRP, the “shrunken log2 fold change” value was determined as 0.347.
To RRIRCRPPRLPRPRPRPFVEPRP belongs -0.507.
With RRIRGRPPRLPRPRPRPLPFPRP the figure was -0.0338.
With RRIRKRPPRLPRPRPRPYLNPRP the figure was -0.362; with RRIRYRPPRLPRPRPRPYAIPRP, -0.00088.
In the case of RRIRIRPPRLPRPRPRPHGLPRP, the “shrunken log2 fold change” value is -0.00134.
To RRIRIRPPRLPRPRPRPPESPRP belongs 0.185; to RRIRYRPPRLPRPRPRPFRAPRP, -0.142.
With RRIRARPPRLPRPRPRPFANPRP, the “shrunken log2 fold change” value is 0.0657.
For the sequence RRIRMRPPRLPRPRPRPDYHPRP, the “shrunken log2 fold change” value is -0.457.
Turning to RRIRSRPPRLPRPRPRPEAQPRP, the “shrunken log2 fold change” value is 0.438.
As to RRIRRRPPRLPRPRPRPLKIPRP, the “shrunken log2 fold change” value was -0.0377.
Take RRIRRRPPRLPRPRPRPEHTPRP: the “shrunken log2 fold change” value was -0.0248.
Consider RRIRSRPPRLPRPRPRPKAFPRP, for which the “shrunken log2 fold change” value is -0.0206.
With RRIRFRPPRLPRPRPRPMDMPRP the figure was 0.0169; with RRIRRRPPRLPRPRPRPWPWPRP, 0.0938; with RRIRHRPPRLPRPRPRPRCNPRP, -0.331.
To RRIRARPPRLPRPRPRPRGCPRP belongs 0.822; to RRIRGRPPRLPRPRPRPVSKPRP, 0.276.
As for RRIRARPPRLPRPRPRPKASPRP, the “shrunken log2 fold change” value was 0.256.
With RRIRARPPRLPRPRPRPDPHPRP the figure was 0.373.
Turning to RRIRIRPPRLPRPRPRPRMCPRP, the “shrunken log2 fold change” value is 0.242.
To RRIRSRPPRLPRPRPRPLFLPRP belongs -0.00337.
To RRIRFRPPRLPRPRPRPQFLPRP belongs -0.236; to RRIRHRPPRLPRPRPRPWGGPRP, 0.39.
RRIRGRPPRLPRPRPRPAFKPRP: the “shrunken log2 fold change” value came out at 0.177.
To RRIRSRPPRLPRPRPRPWSLPRP belongs -0.0411; to RRIRWRPPRLPRPRPRPEHVPRP, 0.0199.
To RRIRARPPRLPRPRPRPYHLPRP belongs -0.0107; to RRIRIRPPRLPRPRPRPSGMPRP, -0.433; to RRIRRRPPRLPRPRPRPSTDPRP, -0.14.
With RRIRQRPPRLPRPRPRPDPMPRP the figure was -0.0539; with RRIRQRPPRLPRPRPRPLGNPRP, -0.263.
For the sequence RRIRKRPPRLPRPRPRPYQFPRP, the “shrunken log2 fold change” value was -0.17.
With RRIRFRPPRLPRPRPRPRISPRP the figure was -0.0207; with RRIRWRPPRLPRPRPRPFRYPRP, -0.501; with RRIRIRPPRLPRPRPRPVWSPRP, 0.0432.
Regarding RRIRCRPPRLPRPRPRPCQAPRP, the “shrunken log2 fold change” value is -0.244.
With RRIRGRPPRLPRPRPRPEQNPRP the figure was 1.31; with RRIRMRPPRLPRPRPRPCRVPRP, 0.00805; with RRIRWRPPRLPRPRPRPMVRPRP, 0.0171.
With RRIRFRPPRLPRPRPRPDMDPRP the figure was -0.107.
To RRIRGRPPRLPRPRPRPLQDPRP belongs 0.98; to RRIRERPPRLPRPRPRPCFMPRP, -0.231; to RRIRPRPPRLPRPRPRPCIMPRP, -1.1.
As for RRIRHRPPRLPRPRPRPLREPRP, the “shrunken log2 fold change” value is 0.819.
To RRIRQRPPRLPRPRPRPGTRPRP belongs 0.111.
Consider RRIRYRPPRLPRPRPRPSYYPRP, for which the “shrunken log2 fold change” value was -1.66.
To RRIRWRPPRLPRPRPRPNQDPRP belongs 0.0957; to RRIRYRPPRLPRPRPRPEIWPRP, 0.212; to RRIRCRPPRLPRPRPRPWGEPRP, -0.0965.
With RRIRLRPPRLPRPRPRPQLLPRP the figure was -0.0176; with RRIRMRPPRLPRPRPRPDTYPRP, 0.0447; with RRIRHRPPRLPRPRPRPFFGPRP, -0.0142.
With RRIRDRPPRLPRPRPRPGNMPRP the figure was -0.164; with RRIRIRPPRLPRPRPRPQRYPRP, 0.159.
In the case of RRIRCRPPRLPRPRPRPGDCPRP, the “shrunken log2 fold change” value was found to be 0.0297.
To RRIRSRPPRLPRPRPRPLQTPRP belongs 0.436; to RRIRIRPPRLPRPRPRPVGTPRP, -0.126.
With RRIRHRPPRLPRPRPRPACSPRP the figure was -0.104.
In the case of RRIRIRPPRLPRPRPRPIFSPRP, the “shrunken log2 fold change” value was -0.181.
With RRIRWRPPRLPRPRPRPHWMPRP the figure was 0.289.
As to RRIRTRPPRLPRPRPRPVMHPRP, the “shrunken log2 fold change” value is 0.102.
To RRIRKRPPRLPRPRPRPSMYPRP belongs -0.306; to RRIRPRPPRLPRPRPRPAIEPRP, -0.0623.
To RRIRDRPPRLPRPRPRPDFSPRP belongs 0.0345; to RRIRIRPPRLPRPRPRPMVPPRP, 0.0231; to RRIRHRPPRLPRPRPRPWFLPRP, -0.315.
With RRIRSRPPRLPRPRPRPHCCPRP the figure was 0.022; with RRIRSRPPRLPRPRPRPKTSPRP, 0.187; with RRIRYRPPRLPRPRPRPSVVPRP, -0.844.
Consider RRIRERPPRLPRPRPRPGSSPRP, for which the “shrunken log2 fold change” value is -0.331.
To RRIRKRPPRLPRPRPRPAREPRP belongs 0.89; to RRIRWRPPRLPRPRPRPHYFPRP, -0.087; to RRIRMRPPRLPRPRPRPASVPRP, 1.67.
Regarding RRIRWRPPRLPRPRPRPVKKPRP, the “shrunken log2 fold change” value was 0.29.
In the case of RRIRRRPPRLPRPRPRPGLKPRP, the “shrunken log2 fold change” value came to 0.377.
RRIRSRPPRLPRPRPRPNKCPRP: the “shrunken log2 fold change” value is -0.42.
To RRIRLRPPRLPRPRPRPNEQPRP belongs -0.0127; to RRIRNRPPRLPRPRPRPITAPRP, -0.132; to RRIRRRPPRLPRPRPRPFSKPRP, -0.348.
Regarding RRIRKRPPRLPRPRPRPFPKPRP, the “shrunken log2 fold change” value was determined as 0.169.
To RRIRNRPPRLPRPRPRPAGGPRP belongs 0.16; to RRIRSRPPRLPRPRPRPSLIPRP, -0.0623.
With RRIRQRPPRLPRPRPRPDSHPRP the figure was -0.065; with RRIRLRPPRLPRPRPRPDTVPRP, -0.399.
